From patent publication US20220389118A1 (Chugai, published 2022)
Residue numbers refer to the chain shown, from its start.

B1: IL6R-BP262/IL6R-L (antibody, human IgG1, kappa)
heavy: QVQLQESGPGLVKPSETLSLTCAVSGHSISHDHAWSWVRQPPGEGLEWIGFISYSGITNYNPSLQGRVTISRDNSKNTLYLQMNSLRAEDTAVYYCARSLARTTAMDYWGEGTLVTVSSASTKGPSVFPLAPSSKSTSGGTAALGCLVKDYFPEPVTVSWNSGALTSGVHTFPAVLQSSGLYSLSSVVTVPSSSLGTQTYICNVNHKPSNTKVDKKVEPKSCDKTHTCPPCPAPELLGDDSVFLFPPKPKDTLMISRTPEVTCVVVDVSEEDGEVKFNWYVDGVEVHNAKTKPREEQYNSTYRVVSVLTVLHQDWLNGKEYKCKVSNKALPAPIEKTISKAKGQPREPQVYTLPPSRDELTKNQVSLTCLVKGFYPSDIAVEWESNGQPENNYKTTPPVLDSDGSFFLYSKLTVDKSRWQQGNVFSCSVMHEALHNHYTQESLSLSP
light: not shown
notes: copies: 2 + 2
B2: IL6R-BP484/IL6R-L (antibody, human IgG1, kappa)
heavy: B1 heavy with E235D, S269A, E271D
light: not shown
notes: copies: 2 + 2
B3: IL6R-BP532/IL6R-L (antibody, human IgG1, kappa)
heavy: B1 heavy with E235D, V266I, Y298D, A332R, P398M
light: not shown
notes: copies: 2 + 2
B4: IL6R-BP483/IL6R-L (antibody, human IgG1, kappa)
heavy: B1 heavy with E235D, V268L, S269A
light: not shown
notes: copies: 2 + 2
B5: IL6R-BP534/IL6R-L (antibody, human IgG1, kappa)
heavy: B1 heavy with E235D, V266I, Y298D, A332R, P398L
light: not shown
notes: copies: 2 + 2
B6: IL6R-BP507/IL6R-L (antibody, human IgG1, kappa)
heavy: B1 heavy with E235D, V266I, S269A, E274P, A332R
light: not shown
notes: copies: 2 + 2
B7: IL6R-BP504/IL6R-L (antibody, human IgG1, kappa)
heavy: B1 heavy with E235D, V266I, S269A, E274P
light: not shown
notes: copies: 2 + 2
B8: IL6R-BP506/IL6R-L (antibody, human IgG1, kappa)
heavy: B1 heavy with E235D, V266I, S269A, E274P, Y298D, A332R
light: not shown
notes: copies: 2 + 2
B9: IL6R-BP552/IL6R-L (antibody, human IgG1, kappa)
heavy: B1 heavy with E235D, V266I, S269A, E274D, Y298D, A332R
light: not shown
notes: copies: 2 + 2
B10: IL6R-BP535/IL6R-L (antibody, human IgG1, kappa)
heavy: B1 heavy with E235D, V266I, S269G, Y298D, A329G, A332R, P398M
light: not shown
notes: copies: 2 + 2
B11: IL6R-BP481/IL6R-L (antibody, human IgG1, kappa)
heavy: B1 heavy with E235D, V266I, S269A
light: not shown
notes: copies: 2 + 2
B12: IL6R-BP479/IL6R-L (antibody, human IgG1, kappa)
heavy: B1 heavy with E235D, V266I, V268L, S269A
light: not shown
notes: copies: 2 + 2
B13: IL6R-BP555/IL6R-L (antibody, human IgG1, kappa)
heavy: B1 heavy with V266I, S269A, E274D, Y298D, A332R
light: not shown
notes: copies: 2 + 2
B14: IL6R-BP494/IL6R-L (antibody, human IgG1, kappa)
heavy: B1 heavy with S269A, Y298D, A332R
light: not shown
notes: copies: 2 + 2
B15: IL6R-BP505/IL6R-L (antibody, human IgG1, kappa)
heavy: B1 heavy with E235D, V266I, S269A, E274D
light: not shown
notes: copies: 2 + 2
B16: IL6R-BP508/IL6R-L (antibody, human IgG1, kappa)
heavy: B1 heavy with E235D, V266I, S269A, E274P, Y298D
light: not shown
notes: copies: 2 + 2
B17: IL6R-BP537/IL6R-L (antibody, human IgG1, kappa)
heavy: B1 heavy with V266I, S269G, A332R
light: not shown
notes: copies: 2 + 2
B18: IL6R-BP531/IL6R-L (antibody, human IgG1, kappa)
heavy: B1 heavy with E235D, V266I, S269G, Y298D, A332R, P398M
light: not shown
notes: copies: 2 + 2
B19: IL6R-BP549/IL6R-L (antibody, human IgG1, kappa)
heavy: B1 heavy with S269G, A332R
light: not shown
notes: copies: 2 + 2
B20: IL6R-BP553/IL6R-L (antibody, human IgG1, kappa)
heavy: B1 heavy with E235D, V266I, S269A, E274D, A332R
light: not shown
notes: copies: 2 + 2
B21: IL6R-BP509/IL6R-L (antibody, human IgG1, kappa)
heavy: B1 heavy with E235D, V266I, S269A, E274D, Y298D
light: not shown
notes: copies: 2 + 2
B22: IL6R-BP269/IL6R-L (antibody, human IgG1, kappa)
heavy: B1 heavy with Y298D
light: not shown
notes: copies: 2 + 2
B23: IL6R-2B169/IL6R-L (antibody, human IgG1, kappa)
heavy: B1 heavy with D239G, E270H, G273P, V325I
light: not shown
notes: IgG1 type
B24: IL6R-BP912/IL6R-L (antibody, human IgG1, kappa)
heavy: B1 heavy with D239G, E270H, G273P, A332R
light: not shown
notes: IgG1 type
B25: IL6R-BP110/IL6R-L (antibody, human IgG1, kappa)
heavy: B1 heavy with D239G, E270N, G273P
light: not shown
notes: IgG1 type
B26: IL6R-2B128/IL6R-L (antibody, human IgG1, kappa)
heavy: B1 heavy with D239G, E270H, G273P, Y298D
light: not shown
notes: IgG1 type
B27: IL6R-BP121/IL6R-L (antibody, human IgG1, kappa)
heavy: B1 heavy with D239G, E270H, G273P, K328Q
light: not shown
notes: IgG1 type
B28: IL6R-2B002/IL6R-L (antibody, human IgG1, kappa)
heavy: B1 heavy with E235D, D239G, E270H, G273P
light: not shown
notes: IgG1 type
B29: IL6R-BP136/IL6R-L (antibody, human IgG1, kappa)
heavy: B1 heavy with D239G, E270H, G273P, K328A
light: not shown
notes: IgG1 type
B30: IL6R-BP142/IL6R-L (antibody, human IgG1, kappa)
heavy: B1 heavy with D239G, E270H, G273P, K328N
light: not shown
notes: IgG1 type
B31: IL6R-BP112/IL6R-L (antibody, human IgG1, kappa)
heavy: B1 heavy with D239G, E270H
light: not shown
notes: IgG1 type

Target: T1, human FcγRIa extracellular domain with C-terminal His tag (human, UniProt P12314 16-292)
T1 construct: extracellular domain
Assay: SPR (Biacore)

T1 sequence (P12314 16-292): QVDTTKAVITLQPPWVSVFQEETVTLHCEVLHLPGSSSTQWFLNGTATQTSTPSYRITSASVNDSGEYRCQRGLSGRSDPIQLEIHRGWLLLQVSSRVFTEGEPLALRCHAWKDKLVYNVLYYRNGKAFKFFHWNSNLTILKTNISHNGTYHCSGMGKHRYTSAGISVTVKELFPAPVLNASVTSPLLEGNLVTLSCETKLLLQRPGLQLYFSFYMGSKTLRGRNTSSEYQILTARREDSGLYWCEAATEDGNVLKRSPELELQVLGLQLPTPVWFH

Point of comparison: B14, Kd 3.9 nM. Against it:
- B1 — 2.6-fold higher, 10 nM
- B2 — 4.8-fold lower, 0.82 nM
- B3 — 3.1-fold higher, 12 nM
- B4 — 3-fold lower, 1.3 nM
- B5 — 2.4-fold higher, 9.3 nM
- B6 — 1.5-fold lower, 2.6 nM
- B7 — 2.8-fold lower, 1.4 nM
- B8 — within 1.5-fold, 3.1 nM
- B9 — within 1.5-fold, 3.2 nM
- B10 — 2.8-fold higher, 11 nM
- B11 — 3.9-fold lower, 1 nM
- B12 — within 1.5-fold, 5.3 nM
- B13 — 2.4-fold higher, 9.4 nM
- B15 — 3.5-fold lower, 1.1 nM
- B16 — 2.8-fold lower, 1.4 nM
- B17 — 7.4-fold higher, 29 nM
- B18 — 2.4-fold higher, 9.4 nM
- B19 — 4.6-fold higher, 18 nM
- B20 — within 1.5-fold, 3.4 nM
- B21 — 3.5-fold lower, 1.1 nM
- B22 — 3.6-fold higher, 14 nM

Target: T2, human FcγRIIb extracellular domain with C-terminal His tag (human, UniProt P31994 43-217)
T2 construct: extracellular domain
T2 sequence (looked up): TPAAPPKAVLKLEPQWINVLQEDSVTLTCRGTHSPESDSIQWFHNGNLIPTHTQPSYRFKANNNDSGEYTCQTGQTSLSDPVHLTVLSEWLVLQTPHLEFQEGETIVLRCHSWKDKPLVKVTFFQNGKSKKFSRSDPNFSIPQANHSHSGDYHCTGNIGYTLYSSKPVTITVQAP
Assay: SPR (Biacore)

Point of comparison: B22, Kd 110 nM. Against it:
- B1 — within 1.5-fold, 120 nM
- B2 — 2.4-fold lower, 46 nM
- B3 — 34-fold lower, 3.2 nM
- B4 — within 1.5-fold, 78 nM
- B5 — 37-fold lower, 3 nM
- B6 — 38-fold lower, 2.9 nM
- B7 — 4.6-fold lower, 24 nM
- B8 — 32-fold lower, 3.4 nM
- B9 — 42-fold lower, 2.6 nM
- B10 — 28-fold lower, 4 nM
- B11 — 5.8-fold lower, 19 nM
- B12 — 2-fold lower, 56 nM
- B13 — 27-fold lower, 4.1 nM
- B14 — 17-fold lower, 6.6 nM
- B15 — 5.2-fold lower, 21 nM
- B16 — 5.2-fold lower, 21 nM
- B17 — 16-fold lower, 6.9 nM
- B18 — 29-fold lower, 3.8 nM
- B19 — 6.9-fold lower, 16 nM
- B20 — 35-fold lower, 3.1 nM
- B21 — 6.1-fold lower, 18 nM

Target: T3, human FcγRIIa type R extracellular domain with C-terminal His tag (human, UniProt P12318 34-217)
T3 construct: extracellular domain; also called FcγRIIaR; FcγRIIa(R)
T3 sequence (looked up): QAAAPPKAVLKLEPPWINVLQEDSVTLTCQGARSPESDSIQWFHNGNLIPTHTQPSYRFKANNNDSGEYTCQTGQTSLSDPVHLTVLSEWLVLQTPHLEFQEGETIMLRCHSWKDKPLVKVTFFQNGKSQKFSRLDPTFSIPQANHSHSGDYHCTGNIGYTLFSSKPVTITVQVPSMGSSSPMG
Assay: SPR (Biacore)

Point of comparison: B6, Kd 100 nM. Against it:
- B1 — 20-fold higher, 2000 nM
- B2 — 7.8-fold higher, 780 nM
- B3 — within 1.5-fold, 94 nM
- B4 — 13-fold higher, 1300 nM
- B5 — within 1.5-fold, 91 nM
- B7 — 4.5-fold higher, 450 nM
- B8 — within 1.5-fold, 120 nM
- B9 — within 1.5-fold, 97 nM
- B10 — within 1.5-fold, 92 nM
- B11 — 4-fold higher, 400 nM
- B12 — 9-fold higher, 900 nM
- B13 — 1.6-fold higher, 160 nM
- B14 — 2.5-fold higher, 250 nM
- B15 — 4.3-fold higher, 430 nM
- B16 — 5.4-fold higher, 540 nM
- B17 — 2.7-fold higher, 270 nM
- B18 — within 1.5-fold, 120 nM
- B19 — 5.7-fold higher, 570 nM
- B20 — within 1.5-fold, 86 nM
- B21 — 5.2-fold higher, 520 nM
- B22 — 22-fold higher, 2200 nM

Target: T2, human FcγRIIb extracellular domain with …
Assay: SPR (Biacore), ratio of KDs

Point of comparison: B22, “KD(IIaH)/KD(IIb)” value 637. Against it:
- B1 — lower, 375
- B2 — lower, 241
- B4 — lower, 231
- B7 — higher, 658
- B11 — lower, 350
- B12 — lower, 268
- B14 — higher, 821
- B15 — lower, 514
- B16 — higher, 962
- B19 — higher, 696
- B21 — lower, 444

Point of comparison: B4, “KD(IIaR)/KD(IIb)” value 16.8. Against it:
- B1 — higher, 17
- B2 — higher, 17.1
- B7 — higher, 18.5
- B11 — higher, 20.5
- B12 — lower, 16.1
- B14 — higher, 38.6
- B15 — higher, 20
- B16 — higher, 26
- B19 — higher, 35.9
- B21 — higher, 29.2
- B22 — higher, 19.6

Target: T2, human FcγRIIb extracellular domain with …
Assay: SPR (Biacore), parent IL6R-B3/IL6R-L

Point of comparison: B22, “KD(IIb) parent/KD(IIb) altered polypeptide” value 27.4. Against it:
- B1 — lower, 25.8
- B2 — higher, 67.8
- B4 — higher, 39.7
- B7 — higher, 128
- B11 — higher, 160
- B12 — higher, 55.5
- B14 — higher, 471
- B15 — higher, 145
- B16 — higher, 149
- B19 — higher, 196
- B21 — higher, 174

Target: T3, human FcγRIIa type R extracellular …
Assay: SPR (Biacore), parent IL6R-B3/IL6R-L

Point of comparison: B21, “KD(IIaR) parent/KD(IIaR) altered polypeptide” value 2.1. Against it:
- B1 — lower, 0.5
- B2 — lower, 1.4
- B4 — lower, 0.8
- B7 — higher, 2.4
- B11 — higher, 2.8
- B12 — lower, 1.2
- B14 — higher, 4.3
- B15 — higher, 2.6
- B16 — lower, 2
- B19 — lower, 1.9
- B22 — lower, 0.5

Target: T4, human FcγRIIb extracellular domain with C-terminal His tag (human, UniProt P31994 43-217)
T4 construct: extracellular domain; also called FcgRIIb
T4 sequence (looked up): T2 sequence (looked up)
Assay: SPR (Biacore), antibody captured, FcγR as analyte

Point of comparison: B23, “KD(IIb) of parent polypeptide/KD(IIb) of altered polypeptide” value 2.6 fold vs IL6R-B3/IL6R-L. Against it:
- B24 — lower, 2.1 fold vs IL6R-B3/IL6R-L
- B25 — lower, 2.1 fold vs IL6R-B3/IL6R-L
- B26 — lower, 2.1 fold vs IL6R-B3/IL6R-L
- B27 — higher, 2.8 fold vs IL6R-B3/IL6R-L
- B28 — higher, 3.3 fold vs IL6R-B3/IL6R-L
- B29 — higher, 3.9 fold vs IL6R-B3/IL6R-L
- B30 — the same, 2.6 fold vs IL6R-B3/IL6R-L
- B31 — higher, 9.7 fold vs IL6R-B3/IL6R-L

B29 was tested, and the Kd was 800 nM.
